Reference: publication PMC2853022

Target: NS3h (helicase domain of HCV NS3) (Hepatitis C virus, Con 1b replicon …, UniProt Q9WMX2 1192-1657)
Experiment: stopped-flow fluorescence

Chain of NS3h (helicase domain of HCV NS3) (Q9WMX2 1192-1657): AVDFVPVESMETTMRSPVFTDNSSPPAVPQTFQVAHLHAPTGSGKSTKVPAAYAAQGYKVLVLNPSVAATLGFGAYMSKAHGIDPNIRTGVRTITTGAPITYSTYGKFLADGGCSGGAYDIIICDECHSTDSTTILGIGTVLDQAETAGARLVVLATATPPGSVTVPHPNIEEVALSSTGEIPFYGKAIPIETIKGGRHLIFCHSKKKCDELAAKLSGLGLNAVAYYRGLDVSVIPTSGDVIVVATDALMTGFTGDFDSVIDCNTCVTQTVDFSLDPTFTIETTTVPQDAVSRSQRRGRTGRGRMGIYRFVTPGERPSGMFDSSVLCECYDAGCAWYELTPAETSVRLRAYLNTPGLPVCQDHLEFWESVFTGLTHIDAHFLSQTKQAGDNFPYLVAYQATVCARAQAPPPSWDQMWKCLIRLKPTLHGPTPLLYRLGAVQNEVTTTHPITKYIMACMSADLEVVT

B1: 37:22-mer partial duplex (dsDNA)
DNA 1: GACTGACGCTAGGCTGACAGGATTTTTTTTTTTTTTT
DNA 2: TCCTGTCAGCCTAGCGTCAGTC
B1: binds.
